Measurements as given in article PMC4212835.

Target: Enterococcus faecalis pyruvate dehydrogenase complex component E2 (dihydrolipoamide acetyltransferase) (Enterococcus faecalis)
Experiment: SEC

Row | Substance | relative abundance of subunits E1, E2, and E3 (mass ratio, E2 = 1) [mass ratio]
1 | Enterococcus faecalis pyruvate dehydrogenase complex component E1 (pyruvate dehydrogenase; E1α and E1β) (from UniProt A0ACD6TC15 1-371) | 2.27
2 | Enterococcus faecalis pyruvate dehydrogenase complex component E3 (dihydrolipoyl dehydrogenase) (from UniProt A0ACD6TCW3 1-468) (enzyme) | 1.26
